Columns and labels:
[1] = test system: TRAC TALEN right monomer (artificial); experiment: cell_activity; settings: as TALEN pair with left monomer; primary human T cells, plateau by 72 h
[2] = test system: TRAC TALEN left monomer (artificial); experiment: cell_activity; settings: as TALEN pair with right monomer; primary human T cells, plateau by 72 h

Row | Sequence | activity [1] [% indels] | activity [2] [% indels]
1 | GGTACAGGTAAGAGCAA (double strand) [TRAC TALEN right half-site] | 90 | –
2 | TTCCTCCTACTCACCAT (double strand) [TRAC TALEN left half-site] | – | 90

Reference: US20230212613
